# Experimental data published in patent US5935840A, “Activated recombinant adenovirus proteinases” (priority 1995, dated 1999).
# “Also recorded” adds a separate entry of the source.
# Columns and labels:
# [1] = test system: Ad2 major core protein precursor, pVII; assay: Assay of adenovirus proteinase activity in crude extracts: cleavage of [35S]-methionine-labeled pVII (SDS-PAGE, autoradiography); format: biochemical, adenovirus type 2
# Method: The expression products of the above-described Ad2 and Ad12 proteinase plasmids were tested for their ability to cleave the Ad2 major core protein precursor, pVII, in crude extracts from adenovirus-infected cells. The extracts were obtained from human cells infected with the temperature-sensitive mutant Ad2 strain, H2ts1, which has a defective proteinase. As described below, adenovirus proteinase activity requires the presence of two cofactors. […] The recombinant proteinases were also characterized by peptide sequence analysis of their amino-termini.
# Bacterial extracts were incubated with the radiolabeled substrate (pVII). Samples were removed at different times and analyzed by SDS-PAGE and autoradiography. […] Appearance of the processed VII band and concurrent decrease of the precursor pVII band indicates proteinase activity. Radiolabeled proteins of Ad2 virions were run on the gel to indicate the positions of pVII, VII, and other virion components (lane a). Extracts from Ad2 -infected HeLa cells were assayed as a positive control for proteinase activity (lane b).
# Adenovirus proteinase activity was monitored by the cleavage of [^35 S]-methionine-labeled major core precursor (pVII) essentially as described (Bhatti and Weber, Biochem. Biophys. Res. Comm. 81: 973-797, (1978)). The proteinase substrate was prepared from Ad2Ad2tsl-infected HeLa cells grown at 39° C. and labeled with [^35 S]-methionine (200 μCi/plate) from approximately 28 to 30 hours after infection. Labeled cultures were harvested, washed twice in Phosphate Buffered Saline (PBS), resuspended in 1.0 ml of 10 mM sodium phosphate buffer, pH 7.4, per plate, and sonicated for 40 seconds using a water-cooled sonicator horn (Branson Sonic Power Co., Danbury, Conn.). The extract was then centrifuged at 12,000×g for 10 minutes, and the pellet was resuspended in 10 mM phosphate buffer.
# Extracts of Ad-infected cells, harvested 40 hours after infection at 37° C. were used as a source of viral proteinase. Harvested cultures were washed twice with PBS, resuspended in 10 mM phosphate buffer, frozen and thawed once, and centrifuged at 12,000×g for 10 minutes. Pellets were resuspended in 1.0 ml phosphate buffer, pH 7.4, per 10^6 infected cells and sonicated 4×10 seconds; samples were stored at -70° C. Bacterial extracts were prepared by lysozyme-EDTAtreatment of cultures harvested 2 hours after IPTG induction.
# Assays were performed by mixing equal volumes of [^35 S]-labeled substrate and test extract and incubating at 37° C. At different times, 25 μl samples were removed, mixed with 25 μl of SDS Sample Buffer, heated to 90° C., and analyzed by SDS-polyacrylamide gel electrophoresis and autoradiography as described (Anderson et al., J. Virol. 12: 241-252 (1973).
# Recombinant proteinase polypeptides were assayed for proteinase activity by incubating whole-cell extracts of BL21 (DE3), pT7AD23K5/BL21(DE3), and pT7AD23k6/BL21(DE3), prepared as described above, with extracts of [^35 S]-methionine-labeled Ad2 virion precursor polypeptides. Incubation of the labeled extract at 37° C. for up to 20 hours, alone or with an extract prepared from uninfected HeLa cells, produced little change in the pattern of labeled polypeptides.
# HEP1DBP = assay: Cleavage of artificial protein substrate HEP1DBP (SDS-polyacrylamide gel electrophoresis); format: biochemical; details: incubated with HEP1DBP alone, no added cofactors
# Source text: Recombinant protein substrates that resemble natural virion precursors, such as pVI, can be produced in E. coli by genetic engineering methods similar to those used for expression of recombinant adenovirus proteinase. The recombinant substrate may have an artificial leader sequence that can be removed by proteinase-mediated cleavage. The leader can be designed to aid in purification of the substrate; thus the recombinant substrate can be produced and purified much more efficiently than natural adenovirus substrates. Recombinant protein substrates also serve as prototypes of potential commercial products, showing that the adenovirus proteinase will remove an artificial leader sequence from a recombinant protein that is not related to any adenovirus protein. The first artificial protein substrate was called HEP1DBP. It consists of a 17 amino acid leader (Met-Ala-Ser-Met-Thr-Gly-His-His-His-His-His-His-Gly-Met-Ser-Gly-Gly-) (SEQ ID NO: 37) attached to the initiating methionine of the 232 amino acid DNA binding protein (DBP), of bacteriophage T7. The T7 DBP is the product of gene 2.5. The recombinant proteinase substrate is produced by induction of a pET expression plasmid called pT7HEP1DBP (also called pT7HIS2) (FIG. 7A and Example 11); the predicted sequence of the expressed substrate is given in Table 1. The leader sequence contains six consecutive histidine residues to permit purification by metal affinity chromatography in a manner analogous to purification of the adenovirus proteinase. Immediately preceding the methionine corresponding to the initiation site of the T7 DBP is the tetra-amino acid element -Met-Ser-Gly-Gly- (SEQ ID NO: 38). This segment corresponds to the proteinase recognition sequence in the adenovirus virion precursor polypeptide pVI. The size of the leader sequence was chosen so that the substrate precursor HEP1DBP, and the predicted major product after cleavage, the T7 DBP, could easily be distinguished by SDS-polyacrylamide gel electrophoresis.
# When purified HEP1DBP was incubated with disrupted wild-type adenovirus 2 virions, it was cleaved, as determined from the change in its mobility during SDS-polyacrylamide gel electrophoresis. No cleavage was observed when incubation was with disrupted H2ts1 virions alone.
# Plasmid pT7HEP1DBP (5346 bp) is a pET-3 derivative that expresses the […] T7 gene 2.5 protein (a single-stranded DNA binding protein) attached to a 17-amino acid leader sequence (FIG. 19). The 249-amino acid HEP1DBP polypeptide serves as an artificial substrate for the adenovirus EP; the leader peptide, MASMTGHHHHHHGMSGG- (SEQ ID NO: 37), ends with the Ad2 proteinase recognition sequence -MSGG- (SEQ ID NO: 38) [Anderson, C. […]
# [2] = Solubility of bacterially expressed proteinases (10,000×g supernatant/pellet of lysed E. coli); format: physicochemical
# Method: The 23k5 and 23k6 products were tested for solubility as an indication of protein folding. Induced bacteria were harvested and lysed with lysozyme-EDTA, and 10,000×g supernatants were prepared.
# The expressed proteinase polypeptides were then tested for solubility. Induced bacteria were harvested and lysed with lysozyme-EDTA, and 10,000×g supernatants were prepared. In each case, the majority of the proteinase polypeptide was found in the 10,000×g pellet. When pellet fractions were analyzed by SDS-polyacrylamide gel electrophoresis in the absence of a reducing agent, only a small fraction of the proteinase polypeptides entered the stacking gel, showing that most of the bacterially synthesized proteinase was misfolded and crosslinked through disulfide bonds. This finding was true for both pT7AD23K5 products (23k5a and 23k5b) as well as for the 23k6 polypeptide.
# [3] = test system: (Leu-Arg-Gly-Gly-NH)2 -rhodamine; assay: Fluorescence assay of proteinase activity of virus and recombinant proteinase preparations; format: biochemical
# Source text: The nature of the proteinase cofactor(s) was pursued with the aid of the second assay, which utilizes the substrate (Leu-Arg-Gly-Gly-NH)2 -rhodamine. The design of this substrate was based on two facts. (1) It was known that the proteinase present in disrupted Ad2 virions would cleave small peptides with sequence similar to that found at natural cleavage sites in adenovirus virion precursors (Webster et al., 1989). (2) Cleavage of either tetra-peptide sequence from the substituted rhodamine substrate produces a very large increase, up to a 3500-fold, in fluorescence. Under conditions where only a small fraction of the rhodamine substrate is cleaved, the increase in fluorescence is proportional to the amount of proteinase present and to the time of incubation. Thus, the fluorescence assay provides a quantitative method for assessing proteinase activity that is more sensitive convenient and rapid than the gel electrophoresis assay.
# Assays were performed in 400 μl of Assay Buffer (50 mM Tris-HCl, pH 7.4, 25 mM NaCl, 10 mM octylglucoside, and 1 mM dithiothreitol). […] When present, the number of disrupted virus particles was 10^10 and the amount of recombinant proteinase was 0.12 mAU280 nm. […] After 30 minutes at 37° C., a 360 μl aliquot of the reaction was added to 340 μl of Assay Buffer minus octylglucoside, and the increase in fluorescence was measured. The excitation wavelength was 492 nm and the emission wavelength was 523 nm, both with a bandwidth of 5 nm. The change in fluorescence, ΔF, is the magnitude of the fluorescence from the sample minus the magnitude of the fluorescence from an identical solution without enzyme.
# Disrupted virus was obtained as follows: Twice CsCl-banded virus was dialyzed against 10 mM Tris-HCl, pH 8.0, 1mM EDTA and centrifuged at 100,000×g for 1 hour. The pellet was suspended in 10 mM Tris-HCl, pH 6.8, containing 20% (v/v) glycerol and, after three 10 second bursts of sonication, was stored at -20° C. The fluorogenic substrate was synthesized and purified at BNL by Dr. Walter Mangel, using methods similar to those previously described by Dr. Mangel. These methods are described in two U.S. Patents (U.S. Pat. No. 4,557,862 entitled "Rhodamine derivatives as fluorogenic substrates for proteinases" by Mangel, W. F., Leytus, S., and L. Helhado; issued Dec. 10, 1985; U.S. patent application Ser. No. 780,552; "Novel rhodamine derivatives as fluorogenic substrates" by Mangel, W. F., Leytus, S., and L. Helhado; filing date Sep. 24, 1985) and in other publications by Mangel and co-workers.
Substance,Stability of processing activity in the bacterial extracts ([1]; 37° C.),"Activity/Conditions ([1]; Induced, log phase)","Time by which virtually all of pVII had been converted to VII ([1]; bacterial extract, 37° C.)","Proteinase activity (cleavage of pVII) ([1]; extracts of IPTG-induced, log phase cells)",Cleavage of HEP1DBP (HEP1DBP),Part of recombinant proteinase that folds into a soluble protein ([2]; incubation temperature lowered to 30° at addition of IPTG),"Solubility of expressed proteinase ([2]; induced bacteria lysed with lysozyme-EDTA, 10,000×g)","Rate of substrate hydrolysis by the rEP protein alone ([3]; 8.3 nM rEP protein, 1 μM substrate, no cofactors)",Proteinase activity in fluorescence assay ([3]; complemented with disrupted H2ts1 virus),Proteinase activity in fluorescence assay ([3]; preparation alone)
23K6: recombinant wild-type 204/203 amino acid Ad2 proteinase expressed from pT7AD23k6 in E. coli,about 2 hours,Active,≤ 2 hours,significant proteinase activity; also recorded: active,no cleavage,approximately half,majority of the proteinase was found in the insoluble pellet,–,–,–
"rEP protein: purified recombinant Ad2 proteinase, an activatable proteinase",–,–,–,–,–,–,–,less than 0.014 pmol substrate min^-1,Activity was obtained,no activity
